Biological target: 5-TAMRA-labeled human CaV1.2-IQ peptide (human)
Sequence (Q13936 1659-1692): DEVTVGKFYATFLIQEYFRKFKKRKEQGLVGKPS

calmodulin, wild type (from UniProt P0DP23 1-149) (natural protein)
f300 (calcium-dependent inactivation of the CaV1.2 channel; whole-cell voltage clamp of HEK293 cells co-transfected with human CaV1.2 α1C, β2a, α2δ and calmodulin): 0.57

Source: PMC12711917
